Article PMC8396674

Key:
Assay in all cases: AUC; sedimentation velocity, 0.25 mg/mL (14.7 µM) protein with 7-fold molar excess of TbCl3, 20 °C, 50,000 rpm, c(s) analysis
[1] = molecular target: gC1q domain of human otolin-1, natural variant R339S (human)
[2] = molecular target: gC1q domain of human otolin-1 (hOtolC1q), wild type (human)
[3] = molecular target: gC1q domain of human otolin-1, natural variant Q426R (human)

Work on “gC1q domain of human otolin-1, natural variant R339S (domain or fragment)” yielded a stoichiometry N [1] of 3.

“gC1q domain of human otolin-1 (hOtolC1q), wild type (domain or fragment)” was tested, and the stoichiometry N [2] was 3.

Work on “gC1q domain of human otolin-1, natural variant Q426R (domain or fragment)” yielded a stoichiometry N [3] of 3.
